Test in all cases: EMSA
The test system of one series is ISW2 complex ((yeast)).
In series [1] the test system is I-S-I complex (ISW2 with Snf2 ATPase domain) ((yeast)).
Series [2] has as its system SWI/SNF complex ((yeast)).

By Kd is commonly meant the equilibrium constant for the complex coming apart. Low readings indicate higher affinity, high ones lower affinity.

On to 217 bp DNA, for which the Kd with ISW2 complex ((yeast)) stood at 25 nM; in series [1], 31 nM; in series [2] it was 20 nM.

These data come from article PMC3378860.
